Assay results as given in patent US20250263440A1, “CD38-BINDING AGENTS AND USES THEREOF” (PeptiDream Inc., priority 2019, published 2025).
Where two headings read alike, the source gives them in different places. One block for each molecule: values may come before it. Positions of bridges follow the written chain, without caps; N, C: chain ends. Non-standard residues stand in square brackets, D forms with d. Residues, ends and D or L forms follow the SMILES beside them. No end group written: not given here. PEG12 = NCCOCCOCCOCCOCCOCCOCCOCCOCCOCCOCCOCCOCCC(=O)O; Bip = N[C@@H](Cc1ccc(-c2ccccc2)cc1)C(=O)O; NMeF = CN[C@@H](Cc1ccccc1)C(=O)O; Ahp(2) = CCCCC[C@H](N)C(=O)O; PEG4 = NCCOCCOCCOCCOCCC(=O)O

What was measured:
[1] = target: T1, CD38 (Homo sapiens, UniProt P28907); assay: ELISA binding assay of I-1 / I-2 sequence variants to CD38
T1 construct: purchased R&D Systems
Procedure: Recombinant human CD38 proteins were purchased from R&D Systems. In some embodiments, the following codons were used. ClAc-Ala: N-Chloroacetyl-L-alanine; MePhe: N-Methyl-L-phenylalanine; MeGly: N-Methyl-glycine; Ahp: (S)-2-aminoheptanoic acid; Bph: (S)-3-([1,1′-biphenyl]-4-yl)-2-aminopropanoic acid.
A number of compounds having similar structures to compound I-1 (difference being amino acid sequence) were prepared and assessed in an ELISA assay. The first sequence is of I-1, and SEQ ID.NO.1.
A number of compounds having similar structures to compound I-2 (difference being amino acid sequence) were prepared and assessed in an ELISA assay. The first sequence is of I-2, and SEQ ID NO. 2.

[2] = target: T1, CD38; assay: SPR assay (BIACORE T200, Sensor Chip CM3, single-cycle kinetics) of binding to immobilized CD38; conditions: for kon / koff: SPR Biacore T200, CM3 chip, HBS-EP with 1% DMSO; for kon: read-out: Ka (association rate constant); for koff: read-out: Kd (dissociation rate constant); for Kd: pegylated compounds, SPR as in Example 2
Procedure: (§1) One of many useful technology for assessing CD38 binding is surface plasmon resonance (SPR). For example, the binding constant of I-1 (SEQ ID NO. 1; same as below) and I-2 (SEQ ID NO. 2; same as below) to CD38 was analyzed by a SPR assay using BIACORE T200 (cytiva: Former GE Healthcare). After the equilibration of Series S Sensor Chip CM3 (produced by cytiva: Former GE Healthcare) with Running Buffer (HBS-EP with 1% (v/v) DMSO), an EDC/NHS mixture was injected at a flow rate of […] for 4 minutes to thereby activate the functional groups on sensor chip. CD38 in 10 mM Acetate (pH5.5) was injected immobilized to at a flow rate of 5 L/min. For 4 minutes to immobilize the CD38 on the substrate surfaces of the sensor chip. Then Ethanolamine was injected at a flow rate of […] for 4 minutes. 1.0 M Ethanolamine (aq.) was injected at a flow rate of […] for 420 seconds for capping. 10 mM Peptides in DMSO were diluted to obtain 10 uM with Running Buffer, and prepared 100 nM, 50 nM, 25 nM, 10 nM, 5 nM of each peptide solutions (Peptide Samples).
(§2) Using these Peptide Samples, kinetics of peptides against CD38 was measured. The method adopted for sample measurement was a single-cycle kinetics method. The analysis was conducted using the evaluation software provided with Biacore T200. A DMSO correction curve obtained by solvent correction measurements was applied for the analysis. Kinetics fitting was done on the difference data obtained by subtracting the baseline data from sample measurement data.
(§3) KD values were calculated based on the association rate constant (ka) and dissociation rate constant (kd).
The binding constant of pegylated compounds was analyzed by a surface plasmon resonance as in the Example −2.

[3] = target: T2, Recombinant human CD38 protein (R&D Systems) (human, UniProt P28907 43-300); assay: ELISA
[4] = target: T2, Recombinant human CD38 protein (R&D …); assay: SPR (Biacore T200), CD38 immobilised on CM3 chip, single-cycle kinetics
Procedure: as §1, with “For example, the binding constant of I-1 (SEQ ID NO. 1; same as below) and I-2 (SEQ ID NO. 2; same as below) to CD38 was analyzed by a SPR assay using BIACORE T200 (cytiva: Former GE Healthcare).” left out
as §2, with “Kinetics fitting was done on the difference data obtained by subtracting the baseline data from sample measurement data.” left out
as §3

[5] = target: T2, Recombinant human CD38 protein (R&D …); assay: SPR (Biacore T200), single-cycle kinetics, CD38 immobilised on CM3 chip, 1:1 Binding model, 25 °C; figure legend names I-1; Table 4 prints 1.8*10^-3 for this constant
Procedure: as §1, with “For example, the binding constant of I-1 (SEQ ID NO. 1; same as below) and I-2 (SEQ ID NO. 2; same as below) to CD38 was analyzed by a SPR assay using BIACORE T200 (cytiva: Former GE Healthcare).” left out
as §2, with “Kinetics fitting was done on the difference data obtained by subtracting the baseline data from sample measurement data.” left out
as §3

[6] = target: T2, Recombinant human CD38 protein (R&D …); assay: SPR (Biacore T200), single-cycle kinetics, CD38 immobilised on CM3 chip, 1:1 Binding model, 25 °C; figure legend names I-1 and the panel matches Table 4 (7.7*10^5, rounded there)
Procedure: as §1, with “For example, the binding constant of I-1 (SEQ ID NO. 1; same as below) and I-2 (SEQ ID NO. 2; same as below) to CD38 was analyzed by a SPR assay using BIACORE T200 (cytiva: Former GE Healthcare).” left out
as §2, with “Kinetics fitting was done on the difference data obtained by subtracting the baseline data from sample measurement data.” left out
as §3

[7] = target: T2, Recombinant human CD38 protein (R&D …); assay: SPR (Biacore T200), single-cycle kinetics, CD38 immobilised on CM3 chip, 1:1 Binding model, 25 °C; figure legend names I-1 and the panel matches Table 4 (2.3*10^-9, rounded there)
Procedure: as §1, with “For example, the binding constant of I-1 (SEQ ID NO. 1; same as below) and I-2 (SEQ ID NO. 2; same as below) to CD38 was analyzed by a SPR assay using BIACORE T200 (cytiva: Former GE Healthcare).” left out
as §2, with “Kinetics fitting was done on the difference data obtained by subtracting the baseline data from sample measurement data.” left out
as §3

[8] = target: T2, Recombinant human CD38 protein (R&D …); assay: ELISA; remark: listed apart in the source
[9] = target: T2, Recombinant human CD38 protein (R&D …); assay: SPR (Biacore T200), single-cycle kinetics, CD38 immobilised on CM3 chip, 1:1 Binding model, 25 °C; figure legend names I-2 and the panel matches Table 4 (3.6*10^5, rounded there)
Procedure: as §1, with “For example, the binding constant of I-1 (SEQ ID NO. 1; same as below) and I-2 (SEQ ID NO. 2; same as below) to CD38 was analyzed by a SPR assay using BIACORE T200 (cytiva: Former GE Healthcare).” left out
as §2, with “Kinetics fitting was done on the difference data obtained by subtracting the baseline data from sample measurement data.” left out
as §3

[10] = target: T2, Recombinant human CD38 protein (R&D …); assay: SPR (Biacore T200), single-cycle kinetics, CD38 immobilised on CM3 chip, 1:1 Binding model, 25 °C; figure legend names I-2 and the panel matches Table 4 (1.3*10^-2, rounded there)
Procedure: as §1, with “For example, the binding constant of I-1 (SEQ ID NO. 1; same as below) and I-2 (SEQ ID NO. 2; same as below) to CD38 was analyzed by a SPR assay using BIACORE T200 (cytiva: Former GE Healthcare).” left out
as §2, with “Kinetics fitting was done on the difference data obtained by subtracting the baseline data from sample measurement data.” left out
as §3

[11] = target: T2, Recombinant human CD38 protein (R&D …); assay: SPR (Biacore T200), single-cycle kinetics, CD38 immobilised on CM3 chip, 1:1 Binding model, 25 °C; figure legend names I-2 and the panel matches Table 4 (3.5*10^-8, rounded there)
Procedure: as §1, with “For example, the binding constant of I-1 (SEQ ID NO. 1; same as below) and I-2 (SEQ ID NO. 2; same as below) to CD38 was analyzed by a SPR assay using BIACORE T200 (cytiva: Former GE Healthcare).” left out
as §2, with “Kinetics fitting was done on the difference data obtained by subtracting the baseline data from sample measurement data.” left out
as §3

Molecule: CCCCC[C@@H]1NC(=O)[C@H](CCCNC(=N)N)NC(=O)[C@H](C)NC(=O)CSC[C@@H](C(N)=O)NC(=O)[C@H](CC(=O)O)NC(=O)[C@H](CCCCC)NC(=O)[C@H](Cc2ccc(-c3ccccc3)cc2)NC(=O)[C@H](CC(C)C)NC(=O)[C@H](C(C)C)NC(=O)CNC(=O)[C@H](CC(=O)O)NC(=O)[C@H](Cc2c[nH]cn2)NC(=O)[C@H](Cc2ccc(O)cc2)NC1=O [I-1]
Binding Assay ([1]; compounds similar to I-1, larger values indicate stronger binding): 1.97
kon [2]: 770000 M⁻¹ s⁻¹
koff [2]: 0.0018 s⁻¹

Molecule: CC(C)C[C@@H]1NC(=O)[C@H](C)NC(=O)CSC[C@@H](C(N)=O)NC(=O)[C@H](C(C)C)NC(=O)[C@H](Cc2c[nH]c3ccccc23)NC(=O)[C@H](C(C)C)NC(=O)[C@H](Cc2ccc(-c3ccccc3)cc2)NC(=O)[C@@H]2CCCN2C(=O)[C@H](CC(C)C)NC(=O)[C@H](C(C)C)NC(=O)[C@H](Cc2ccccc2)N(C)C(=O)[C@H](Cc2c[nH]cn2)NC1=O [I-2] ({CH2CO}-ALH[NMeF]VLP[Bip]VWVC-NH2; thioether N-12)
Binding Assay ([1]; compounds similar to I-2, larger values indicate stronger binding): 1.69
kon [2]: 360000 M⁻¹ s⁻¹
koff [2]: 0.013 s⁻¹

B1: Compound I-1 (SEQ ID NO. 1) (peptide)
peptide: {CH2CO}-AR[Ahp(2)]YHDGVL[Bip][Ahp(2)]DC
modifications: thioether N-13
notes: Ala Arg Ahp Tyr His Asp Gly Val Leu Bph Ahp Asp Cys
Binding Assay (larger values indicate stronger binding) [3]: 1.97
Kd [4]: 2.3 nM
koff [5]: 0.00175 s⁻¹
kon [6]: 769000 M⁻¹ s⁻¹
Kd [7]: 2.27 nM

B2: Compound I-2 (SEQ ID NO. 2) (peptide)
peptide: ALHXVLPXVWVC
modifications: not fully specified; MePhe (N-methyl-L-phenylalanine) at 4; Bph at 8; cyclic peptide (N-terminal ClAc-Ala cyclised with the C-terminal Cys), structure given as a drawing
notes: Printed as Ala Leu His MePhe Val Leu Pro Bph Val Trp Val Cys
Binding Assay (larger values indicate stronger binding) [8]: 1.69
Kd [4]: 35 nM
kon [9]: 358000 M⁻¹ s⁻¹
koff [10]: 0.0127 s⁻¹
Kd [11]: 35.4 nM

Continued, values first:

Kd [2]: 4.3 nM
Molecule: CCCCC[C@@H]1NC(=O)[C@H](CCCNC(=N)N)NC(=O)[C@H](C)NC(=O)CSC[C@@H](C(=O)NCCOCCOCCOCCOCCOCCOCCOCCOCCOCCOCCOCCOCCC(=O)N[C@@H](CCCCN)C(N)=O)NC(=O)[C@H](CC(=O)O)NC(=O)[C@H](CCCCC)NC(=O)[C@H](Cc2ccc(-c3ccccc3)cc2)NC(=O)[C@H](CC(C)C)NC(=O)[C@H](C(C)C)NC(=O)CNC(=O)[C@H](CC(=O)O)NC(=O)[C@H](Cc2c[nH]cn2)NC(=O)[C@H](Cc2ccc(O)cc2)NC1=O [I-4]

Kd [2]: 10.5 nM
Molecule: CC(C)C[C@@H]1NC(=O)[C@H](C)NC(=O)CSC[C@@H](C(=O)NCCOCCOCCOCCOCCC(=O)N[C@@H](CCCCN)C(N)=O)NC(=O)[C@H](C(C)C)NC(=O)[C@H](Cc2c[nH]c3ccccc23)NC(=O)[C@H](C(C)C)NC(=O)[C@H](Cc2ccc(-c3ccccc3)cc2)NC(=O)[C@@H]2CCCN2C(=O)[C@H](CC(C)C)NC(=O)[C@H](C(C)C)NC(=O)[C@H](Cc2ccccc2)N(C)C(=O)[C@H](Cc2c[nH]cn2)NC1=O [I-5] ({CH2CO}-ALH[NMeF]VLP[Bip]VWVC[PEG4]K-NH2; thioether N-12)

Kd [2]: 11.7 nM
Molecule: CC(C)C[C@@H]1NC(=O)[C@H](C)NC(=O)CSC[C@@H](C(=O)NCCOCCOCCOCCOCCOCCOCCOCCOCCOCCOCCOCCOCCC(=O)N[C@@H](CCCCN)C(N)=O)NC(=O)[C@H](C(C)C)NC(=O)[C@H](Cc2c[nH]c3ccccc23)NC(=O)[C@H](C(C)C)NC(=O)[C@H](Cc2ccc(-c3ccccc3)cc2)NC(=O)[C@@H]2CCCN2C(=O)[C@H](CC(C)C)NC(=O)[C@H](C(C)C)NC(=O)[C@H](Cc2ccccc2)N(C)C(=O)[C@H](Cc2c[nH]cn2)NC1=O [I-6] ({CH2CO}-ALH[NMeF]VLP[Bip]VWVC[PEG12]K-NH2; thioether N-12)
